± gives the half width of the 95% confidence interval.
Tests used:
[1] = folding stability dG unfold (combined trypsin and chymotrypsin); higher = more stable
In short: (§1)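 Unfolding free energy was derived, per protease or combined, against a sequence-predicted unfolded-state K50 and a shared folded-state K50, starting from K50 inferred by Bayesian fitting of sequencing counts. Digestion with trypsin and chymotrypsin was carried out on designed mini-proteins under 80 residues without cysteine in a PA-tagged cDNA display construct. Only designs with AlphaFold2 dimer inter-PAE above 15 were kept.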

[2] = folding stability dG unfold from chymotrypsin proteolysis; higher = more stable
In short: as §1

[3] = folding stability dG unfold from trypsin proteolysis; higher = more stable
In short: as §1

Sequence | folding stability dG unfold [1] [kcal/mol] | folding stability dG unfold [2] [kcal/mol] | folding stability dG unfold [3] [kcal/mol]
SAGGSAGGSAGGSTITISPEQPVEGLTIELDGKTIKVVSYTPEPKEGEPLLKVTVERLDSAGGSAGGSAGGS [r10_1098_JUSTAS] | -0.771 ± 0.81 | -0.489 ± 0.33 | -1.28 ± 0.86
SAGGSAGGSAGGSTLQSNASGIFTLYLAGSNLTVTLSKAELPKIPADFPIPSSATFTAGSAGGSAGGSAGGS [r4_91_JUSTAS] | -0.196 ± 0.41 | -0.41 ± 0.51 | 0.215 ± 0.16
SAGGSAGGSAGGSTPTPDGSPVEITLPDGTVVTFDPATNSITIATRTPDSVSTTPIPAAASAGGSAGGSAGG [r7_527_JUSTAS] | 1.2 ± 0.035 | 1.08 ± 0.037 | 1.34 ± 0.031
SAGGSAGGSAGGSVPSDVTVSILEIEPKEDKYLVLLRVPENGTLIEREFESLEEAKELLSAGGSAGGSAGGS [r10_1038_JUSTAS] | 0.645 ± 0.088 | -0.51 ± 0.21 | 1.16 ± 0.033
SAGGSAGGSAGGSVTVERYPDGKVTTTTTDPTRPVTTVTLAEVEPGPGKVLTETVTPVPSAGGSAGGSAGGS [r10_613_JUSTAS] | 1.12 ± 0.1 | 1.3 ± 0.14 | 0.835 ± 0.057
SAGGSAGGSAGGSVVPTTSYSPDGTLTLTTETVTPSSNGLTVTSSTTVRPLPTPASPAASAGGSAGGSAGGS [r10_1200_JUSTAS] | 1.04 ± 0.11 | 1.01 ± 0.039 | 1.35 ± 0.18
SAGGSAGGSAGGSVVTRLPNGSYRYTVTRVSFDPKTGTWSSETTVLTVPPDRPVEIPPGSAGGSAGGSAGGS [r4_48_JUSTAS] | 1.89 ± 0.096 | 2.26 ± 0.11 | 1.14 ± 0.049
SAGGSAGGSAGGSVWIMIPLEEIKDLLPPGWTVEVEPQPMPNNGYIMVPVEIVPPDNAKSAGGSAGGSAGGS [r4_119_TrROS] | 0.552 ± 0.16 | 0.861 ± 0.13 | 0.0715 ± 0.047
SAGGSAGGSAGGSWTVTKEISREGDKVYISTVTTYVNPNGTPVTETETKEISPEEVAELESAGGSAGGSAGG [r11_690_JUSTAS] | 1.11 ± 0.11 | 1.11 ± 0.14 | 0.964 ± 0.037
SAGGSAGGSAGGVAVPKEGIEEFISQLPPDTVVTLYDPETGKDIKVTVSNGKVTISPEGSAGGSAGGSAGGS [r10_137_JUSTAS] | 1.17 ± 0.12 | 1.02 ± 0.12 | 1.29 ± 0.12
SAGGSAGGSAGGVEELKKALEKAGFKVVKVEVTEVKNPETKETTTKITVTLEDGSKLTITSAGGSAGGSAGG [r7_337_TrROS_Hall] | 3.72 ± 0.11 | 3.63 ± 0.058 | 3.95 ± 0.2
SAGGSAGGSAGGVIKTFTSPDNKKYTVTVNKDGSVTVETFDPETGKKSISTVSAAEASLSAGGSAGGSAGGS [r10_838_JUSTAS] | 1.18 ± 0.063 | 0.828 ± 0.066 | 1.32 ± 0.029
SAGGSAGGSAGGVKEFDALAGGVPVKVKVYPDPDGNPRVEVIFPDGSKVTLSADEPLNLSAGGSAGGSAGGS [r10_989_TrMRF] | 1.87 ± 0.068 | 1.58 ± 0.08 | 2.26 ± 0.067
SAGGSAGGSAGGVKKGDKVTVLRVRLELKIKVEKTEDGSLKLTAELKLEISLVTVTAPDSAGGSAGGSAGGS [r10_297_TrROS_Hall] | 5.06 ± 0.21 | 5.2 ± 0.15 | 3.53 ± 0.14
SAGGSAGGSAGGVKPGQKVKVEIDGKTYEATVDEKNGTIYVTLPNGKKYKAKIVKVEKVSAGGSAGGSAGGS [r10_1185_TrROS_Hall] | 2.38 ± 0.12 | 2.64 ± 0.05 | 1.79 ± 0.18
SAGGSAGGSAGGVPPESVLLSEEKVGGKTVEIVRDPATGKLYRVTKVPGSDSIEVEELGLSAGGSAGGSAGG [r7_179_JUSTAS] | 2.43 ± 0.092 | 2.549 ± 0.013 | 2.2 ± 0.093

Sequence | folding stability dG unfold [1] [kcal/mol] | folding stability dG unfold [2] [kcal/mol] | folding stability dG unfold [3] [kcal/mol]
SAGGSAGGSAGGVTIVIGTDKDIPAEVIEKEVADELLKAGIPPDVKVNVVVVPIDPDALSAGGSAGGSAGGS [r10_746_TrMRF] | 1.11 ± 0.1 | 1.17 ± 0.087 | 1.1 ± 0.042
SAGGSAGGSAGGWIRSPGGWWVNIDIEIFEIPIDKNMSPEMANKFKRVRIIVIEITVVKRSAGGSAGGSAGG [r7_324_TrROS] | 3.84 ± 0.25 | 4.7 ± 0.15 | 3.31 ± 0.16
SAGGSAGGSAGGWRTVWIRMPPGQSPEQAVDEIKDHFPPGEPIEVEYHPNDGFFRVKIPSAGGSAGGSAGGS [r10_163_TrROS] | 0.668 ± 0.077 | 0.546 ± 0.22 | 0.654 ± 0.08
SAGGSAGGSAGGWYVQIKFPNNPIYISAEEIRDNPEVLKELEDEGYPIKNIEVMKPGEGSAGGSAGGSAGGS [r10_396_TrROS] | 0.241 ± 0.14 | -0.5 ± 0.29 | 0.526 ± 0.082
SAGGSAGGSAGGYSAIIIFPTEFDNKLYYAAVELESPSEELHEGDIKSVILAPLNTPILSAGGSAGGSAGGS [r10_730_TrMRF] | 1.64 ± 0.046 | 1.41 ± 0.043 | 1.93 ± 0.096
SAGGSAGGSAGIEAVVKELEELGYEVEATPEPDGSVVIEVTLKNGEKLTVRVGPFGGVEASAGGSAGGSAGG [r17_503_TrMRF] | 2.24 ± 0.13 | 2.2 ± 0.071 | 2.21 ± 0.14
SAGGSAGGSAGIEKTKDGVYKITIYNPSTGKKTEIYVPSSAPYVAGPVVLELVKNKAIIESAGGSAGGSAGG [r11_538_TrMRF] | 0.47 ± 0.055 | 0.802 ± 0.11 | -0.296 ± 0.074
SAGGSAGGSAGIIVRLPDGGWLIIDITMTRKYPPPDGKPKKVEFEFTIIISPKSGKIRIVSAGGSAGGSAGG [r11_271_TrROS] | 3.01 ± 0.26 | 3.21 ± 0.15 | 2.94 ± 0.2
SAGGSAGGSAGIKTESLEEALEYVKKTFPPGTKVEIVVEGDGKPIKITVTVLENGEIKVESAGGSAGGSAGG [r17_69_TrMRF] | 3.58 ± 0.12 | 3.24 ± 0.036 | 3.97 ± 0.16
SAGGSAGGSAGIRIKAFPGWKIVDIEPNPPGTIIIRYPNWVFQIRIRPNGEIEIRIVPLDSAGGSAGGSAGG [r11_612_TrROS] | 3.49 ± 0.083 | 3.64 ± 0.055 | 3.09 ± 0.093
SAGGSAGGSAGIRIYWDPENGWYRVKYPDPDGKPVDEHPMPPDQLPEFLQAGNIEVEPWPSAGGSAGGSAGG [r11_159_TrROS] | 1 ± 0.095 | 1.27 ± 0.081 | 0.759 ± 0.035
SAGGSAGGSAGITIRDPDNGMWIQIEKTPDMFKVEIEMPGNGKKVEFTFPPGQSLDDLKISAGGSAGGSAGG [r11_772_TrROS] | 0.571 ± 0.12 | 0.473 ± 0.085 | 0.508 ± 0.037
SAGGSAGGSAGKAVFIRELENGAIVLAVPFPDSVRLRVFPLTPGGEVESVEEFTLAPEELSAGGSAGGSAGG [r11_88_TrMRF] | 0.591 ± 0.08 | 0.842 ± 0.088 | -0.0256 ± 0.16
SAGGSAGGSAGKEIKVETEENPNGQHPVKIEIYDGGNPRPIEFPVDSPEDAEDWAKELLKSAGGSAGGSAGG [r11_560_TrROS] | -0.0496 ± 0.079 | 0.148 ± 0.031 | -0.595 ± 0.074
SAGGSAGGSAGKEKEIIIKVKVTKDKNGKYKIDIEELKKLFPNVKITEIKDNYIKIKVKKSAGGSAGGSAGG [r11_771_TrROS_Hall] | 1.75 ± 0.31 | 2.11 ± 0.13 | 1.63 ± 0.1

From the supplement of paper PMC12764529
